Test results: PMC3144226, “Conformational Plasticity of proNGF” (PLoS ONE, 2011)

B1: mature murine Nerve Growth Factor (NGF) (natural protein, UniProt P01139 122-241, looked up)
chain: SSTHPVFHMGEFSVCDSVSVWVGDKTTATDIKGKEVTVLAEVNINNSVFRQYFFETKCRASNPVESGCRGIDSKHWNSYCTTTHTFVKALTTDEKQAAWRFIRIDTACVCVLSRKATRRG
notes: mature NGF, murine, the cut product of proNGF25 after the furin site RSKR (118-121 of UniProt P01139); Trp21, Trp76, Trp99. numbers count on: the mature protein; The purified NGF was made by trypsin cleavage, the NGF of the furin experiment by furin cleavage in the tube; also called mature NGF; NGF moiety; source: in the furin experiment released from proNGF25 by furin in the NMR tube

Experiments:
[1] = molecular target: recombinant murine proNGF (proNGF25, the short form of the precursor protein) (murine) (UniProt P01139); assay: NMR diffusion (PFG-LED); diffusion compared with model proteins (IscS dimer, DHFR, NusA KH domain); phosphate buffer pH 7, 25°C
[2] = molecular target: the molecule itself; assay: 1D 1H NMR spectrum (linewidths); unlabelled NGF; phosphate buffer pH 7, 25°C

| Molecule | stoichiometry N [1] | binding result [2] |
| --- | --- | --- |
| recombinant murine proNGF (proNGF25, the short form of the precursor protein) (from UniProt P01139 19-241) (natural protein) | 2 | – |
| B1 | – | binds |
